Data reported in publication PMC7896290.

What was measured:
[1] = biological target: anti-DNP wild-type human monoclonal IgG1 (human); assay: native MS
[2] = biological target: human monoclonal IgG2 (human); assay: native MS
[3] = biological target: human monoclonal IgG4 (human); assay: native MS
[4] = biological target: anti-DNP IgG1-RGY (human IgG1 with E345R, E430G, S440Y) (human); assay: high-speed atomic force microscopy

stoichiometry N [1] [SpA per IgG] | stoichiometry N [2] [SpA per IgG] | stoichiometry N [3] [SpA per IgG] | Substance | stoichiometry N (SpA-B per IgG) [1] | reduction of IgG1-RGY hexamers [4] [%]
1 | 1 | 1 | staphylococcal protein A, soluble construct containing all five Ig-binding domains (domain or fragment) |  | 
 |  |  | SpA-B domain wild type (single B-domain of staphylococcal protein A) (domain or fragment) | 2 | 50
